Reference: patent US20230416330A1, “Optimized GIP Peptide Analogues” (Antag Therapeutics ApS, priority 2019, published 2023)
Starred links: 1 amine or outer side, 2 acyl side, 3 side chain; linkers in the order of their positions; H or OH if unused. Non-standard residues stand in square brackets, D forms with d. Residues, ends and D or L forms follow the SMILES beside them. Groups on a side chain read outwards from the residue. No end group written: not given here. *: point of attachment. C18 diacid = O=C(O)CCCCCCCCCCCCCCCCC(=O)*; C16 diacid = O=C(O)CCCCCCCCCCCCCCC(=O)*; γGlu = O=C(O)[C@H](CCC(=O)[*:2])N[*:1]; Glutaryl = O=C(CCCC(=O)[*:2])[*:1]; Nle = CCCC[C@H](N)C(=O)O; AEEA = NCCOCCOCC(=O)O; Aib = CC(C)(N)C(=O)O

T1: human GIP receptor (Homo sapiens, UniProt P48546)
T1 construct: host or cells: HEK-293 cells, transient transfection (Lipofectamine 2000), cDNA in pCMV-Script vector
T1 sequence (P48546 22-466): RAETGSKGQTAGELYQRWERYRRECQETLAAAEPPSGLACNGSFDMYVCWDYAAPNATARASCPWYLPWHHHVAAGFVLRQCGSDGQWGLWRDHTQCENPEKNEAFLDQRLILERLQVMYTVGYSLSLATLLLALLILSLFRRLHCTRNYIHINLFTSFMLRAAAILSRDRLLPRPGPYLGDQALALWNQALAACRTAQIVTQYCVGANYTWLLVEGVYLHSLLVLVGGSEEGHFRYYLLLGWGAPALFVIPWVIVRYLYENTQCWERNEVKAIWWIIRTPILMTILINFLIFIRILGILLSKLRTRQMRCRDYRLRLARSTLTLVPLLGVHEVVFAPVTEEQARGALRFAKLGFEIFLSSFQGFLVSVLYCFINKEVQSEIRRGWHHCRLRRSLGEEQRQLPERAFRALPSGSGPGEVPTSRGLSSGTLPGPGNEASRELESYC

T2: human GIP receptor (human, UniProt P48546 22-466)
T2 sequence (looked up): T1 sequence (P48546 22-466)

B1: AT696 (peptide)
peptide: EGTFISEYSI[Aib][Nle]EKIK([AEEA-AEEA-γGlu-C18 diacid])QQEFVEWLLAQKPSSGAPPPS-OH
modifications: N-terminus assumed
SMILES: CCCC[C@H](NC(=O)C(C)(C)NC(=O)[C@@H](NC(=O)[C@H](CO)NC(=O)[C@H](Cc1ccc(O)cc1)NC(=O)[C@H](CCC(=O)O)NC(=O)[C@H](CO)NC(=O)[C@@H](NC(=O)[C@H](Cc1ccccc1)NC(=O)[C@@H](NC(=O)CNC(=O)[C@@H](N)CCC(=O)O)[C@@H](C)O)[C@@H](C)CC)[C@@H](C)CC)C(=O)N[C@@H](CCC(=O)O)C(=O)N[C@@H](CCCCN)C(=O)N[C@H](C(=O)N[C@@H](CCCCNC(=O)COCCOCCNC(=O)COCCOCCNC(=O)CC[C@H](NC(=O)CCCCCCCCCCCCCCCCC(=O)O)C(=O)O)C(=O)N[C@@H](CCC(N)=O)C(=O)N[C@@H](CCC(N)=O)C(=O)N[C@@H](CCC(=O)O)C(=O)N[C@@H](Cc1ccccc1)C(=O)N[C@H](C(=O)N[C@@H](CCC(=O)O)C(=O)N[C@@H](Cc1c[nH]c2ccccc12)C(=O)N[C@@H](CC(C)C)C(=O)N[C@@H](CC(C)C)C(=O)N[C@@H](C)C(=O)N[C@@H](CCC(N)=O)C(=O)N[C@@H](CCCCN)C(=O)N1CCC[C@H]1C(=O)N[C@@H](CO)C(=O)N[C@@H](CO)C(=O)NCC(=O)N[C@@H](C)C(=O)N1CCC[C@H]1C(=O)N1CCC[C@H]1C(=O)N1CCC[C@H]1C(=O)N[C@@H](CO)C(=O)O)C(C)C)[C@@H](C)CC

Assays:
human GIP receptor [1] = molecular target: T1, human GIP receptor; assay: cAMP assay Alternative 1 (CisBio assay), GIPR antagonism; assay type: cell-based; details: for cAMP antagonism % inhib: Table 2B, % inhibition of Emax
Method: HEK293 cells were cultured in 10% CO2 and 37° C. in Dulbecco's modified Eagle's medium supplemented with 10% fetal bovine serum, 2 mM glutamine, 180 units/ml penicillin, and 45 µg/ml streptomycin. Transient transfection with hGIPR for the CisBio assay from Table 2C was performed by using Lipofectamine 2000.
The in vitro functional activity of compounds towards human GIP receptor can also be determined in HEK-293 cells transiently expressing the receptor. On the day of the assay, cells were resuspended in HBSS buffer (Gibco, 14025-50) supplemented with […] (Gibco, 15630-106), 0.1% Pluronic F-68 (Gibco, 24040-032) and 0.1% casein (Sigma, C4765), and plated in 384-well plates at a density of 5000 cells/well. The GIP peptide analogues of the present disclosure were diluted in HBSS buffer supplemented with 20 mM HEPES, 0.1% pluronic, 0.1% casein and 500 uM IBMX. […] The resulting decrease in intracellular cAMP was quantitatively determined using the CisBio cAMP Dynamic 2 HTRF Assay Kit. The assay is based on a competition between native cAMP produced by cells and cAMP labeled with the dye d2 for binding to a cryptate labeled antibody. The specific signal (i.e. energy transfer signal) is inversely proportional to the concentration of cAMP in the sample.
The cAMP-d2 conjugate and the antibody anti-cAMP-Cryptate, both diluted in lysis buffer provided in the kit, were added to the cells according to the manufacturer's protocol. The resulting competitive assay was incubated for 60 minutes at room temperature, and the signal was detected by using a PerkinElmer Envision® instrument with excitation at 320 nm and emission at 665 nm and 620 nm. The HTRF ratio (emission at 665 nm/620 nm*10,000) is inversely proportional to the amount of cAMP present and is converted to nM cAMP per well using a cAMP standard curve. The dose-response curves were fitted using the non-linear regression analysis (four-logistic parameter equation) in GraphPad Prism, whereby pIC50 values were estimated. To test for agonistic properties at the GIP receptor, compounds were diluted and added to cells as described above and incubated for 30 min at 37° C. The resulting increase in intracellular cAMP was determined using the CisBio cAMP Dynamic 2 HTRF Assay Kit as described above.
The dose-response curves were fitted using the non-linear regression analysis (four-logistic parameter equation) in GraphPad Prism, whereby pIC50 values were estimated.

human GIP receptor [2] = molecular target: T2, human GIP receptor; assay: cell-based or functional assay

Molecule | cAMP antagonism % inhib (human GIP receptor [1]) | IC50 (human GIP receptor [1]) | cAMP antagonism % inhib (CisBio assay) (human GIP receptor [2]) | cAMP antagonism nM (IC50, CisBio assay) (human GIP receptor [2]) | cAMP antagonism pIC50 (CisBio assay) (human GIP receptor [2])
CC[C@H](C)[C@H](NC(=O)[C@H](CO)NC(=O)[C@H](Cc1ccc(O)cc1)NC(=O)[C@H](CCC(=O)O)NC(=O)[C@H](CO)NC(=O)[C@@H](NC(=O)[C@H](Cc1ccccc1)NC(=O)[C@@H](NC(=O)CNC(=O)[C@@H](N)CCC(=O)O)[C@@H](C)O)[C@@H](C)CC)C(=O)N[C@@H](C)C(=O)N[C@@H](CCSC)C(=O)N[C@@H](CCC(=O)O)C(=O)N[C@@H](CCCCN)C(=O)N[C@H](C(=O)N[C@@H](CCCCNC(=O)CCCCCCCCCCCCCCC(=O)O)C(=O)N[C@@H](CCC(N)=O)C(=O)N[C@@H](CCC(N)=O)C(=O)N[C@@H](CCC(=O)O)C(=O)N[C@@H](Cc1ccccc1)C(=O)N[C@H](C(=O)N[C@@H](CCC(=O)O)C(=O)N[C@@H](Cc1c[nH]c2ccccc12)C(=O)N[C@@H](CC(C)C)C(=O)N[C@@H](CC(C)C)C(=O)N[C@@H](C)C(=O)N[C@@H](CCC(N)=O)C(=O)N[C@@H](CCCCN)C(=O)N1CCC[C@H]1C(=O)N[C@@H](CO)C(=O)N[C@@H](CO)C(=O)NCC(=O)N[C@@H](C)C(=O)N1CCC[C@H]1C(=O)N1CCC[C@H]1C(=O)N1CCC[C@H]1C(=O)N[C@@H](CO)C(=O)O)C(C)C)[C@@H](C)CC [AT614] (H-EGTFISEYSIAMEKIK(C16 diacid)QQEFVEWLLAQKPSSGAPPPS-OH; N-terminus assumed) | 100% | – | – | – | –
CC[C@H](C)[C@H](NC(=O)[C@H](CO)NC(=O)[C@H](Cc1ccc(O)cc1)NC(=O)[C@H](CC(=O)O)NC(=O)[C@H](CO)NC(=O)[C@@H](NC(=O)[C@H](Cc1ccccc1)NC(=O)[C@@H](NC(=O)CNC(=O)[C@@H](N)CCC(=O)O)[C@@H](C)O)[C@@H](C)CC)C(=O)N[C@@H](C)C(=O)N[C@@H](CCSC)C(=O)N[C@@H](CC(=O)O)C(=O)N[C@@H](CCCCN)C(=O)N[C@H](C(=O)N[C@@H](CCCCNC(=O)CCCCCCCCCCCCCCC(=O)O)C(=O)N[C@@H](CCC(N)=O)C(=O)N[C@@H](CCC(N)=O)C(=O)N[C@@H](CC(=O)O)C(=O)N[C@@H](Cc1ccccc1)C(=O)N[C@H](C(=O)N[C@@H](CCC(=O)O)C(=O)N[C@@H](Cc1c[nH]c2ccccc12)C(=O)N[C@@H](CC(C)C)C(=O)N[C@@H](CC(C)C)C(=O)N[C@@H](C)C(=O)N[C@@H](CCC(N)=O)C(=O)N[C@@H](CCCCN)C(=O)N1CCC[C@H]1C(=O)N[C@@H](CO)C(=O)N[C@@H](CO)C(=O)NCC(=O)N[C@@H](C)C(=O)N1CCC[C@H]1C(=O)N1CCC[C@H]1C(=O)N1CCC[C@H]1C(=O)N[C@@H](CO)C(=O)O)C(C)C)[C@@H](C)CC [AT617] (H-EGTFISDYSIAMDKIK(C16 diacid)QQDFVEWLLAQKPSSGAPPPS-OH; N-terminus assumed) | 91% | 794 pM | – | – | –
CC[C@H](C)[C@H](NC(=O)[C@H](CO)NC(=O)[C@H](Cc1ccc(O)cc1)NC(=O)[C@H](CC(=O)O)NC(=O)[C@H](CO)NC(=O)[C@@H](NC(=O)[C@H](Cc1ccccc1)NC(=O)[C@@H](NC(=O)CNC(=O)[C@@H](N)CCC(=O)O)[C@@H](C)O)[C@@H](C)CC)C(=O)N[C@@H](C)C(=O)N[C@@H](CCSC)C(=O)N[C@@H](CC(=O)O)C(=O)N[C@@H](CCCCN)C(=O)N[C@H](C(=O)N[C@@H](CCCCNC(=O)CCCCCCCCCCCCCCC(=O)O)C(=O)N[C@@H](CCC(N)=O)C(=O)N[C@@H](CCC(N)=O)C(=O)N[C@@H](CC(=O)O)C(=O)N[C@@H](Cc1ccccc1)C(=O)N[C@H](C(=O)N[C@@H](CCC(=O)O)C(=O)N[C@@H](Cc1c[nH]c2ccccc12)C(=O)N[C@@H](CC(C)C)C(=O)N[C@@H](CC(C)C)C(=O)N[C@@H](C)C(=O)N[C@@H](CCC(N)=O)C(=O)N[C@@H](C)C(=O)N1CCC[C@H]1C(=O)N[C@@H](CO)C(=O)N[C@@H](CO)C(=O)NCC(=O)N[C@@H](C)C(=O)N1CCC[C@H]1C(=O)N1CCC[C@H]1C(=O)N1CCC[C@H]1C(=O)N[C@@H](CO)C(=O)O)C(C)C)[C@@H](C)CC [AT623] (H-EGTFISDYSIAMDKIK(C16 diacid)QQDFVEWLLAQAPSSGAPPPS-OH; N-terminus assumed) | 98% | – | – | – | –
CCCC[C@H](NC(=O)C(C)(C)NC(=O)[C@@H](NC(=O)[C@H](CO)NC(=O)[C@H](Cc1ccc(O)cc1)NC(=O)[C@H](CC(=O)O)NC(=O)[C@H](CO)NC(=O)[C@@H](NC(=O)[C@H](Cc1ccccc1)NC(=O)[C@@H](NC(=O)CNC(=O)[C@@H](N)CCC(=O)O)[C@@H](C)O)[C@@H](C)CC)[C@@H](C)CC)C(=O)N[C@@H](CC(=O)O)C(=O)N[C@@H](CCCCN)C(=O)N[C@H](C(=O)N[C@@H](CCCCNC(=O)CCCCCCCCCCCCCCC(=O)O)C(=O)N[C@@H](CCC(N)=O)C(=O)N[C@@H](CCC(N)=O)C(=O)N[C@@H](CC(=O)O)C(=O)N[C@@H](Cc1ccccc1)C(=O)N[C@H](C(=O)N[C@@H](CCC(=O)O)C(=O)N[C@@H](Cc1c[nH]c2ccccc12)C(=O)N[C@@H](CC(C)C)C(=O)N[C@@H](CC(C)C)C(=O)N[C@@H](C)C(=O)N[C@@H](CCC(N)=O)C(=O)N[C@@H](CCCCN)C(=O)N1CCC[C@H]1C(=O)N[C@@H](CO)C(=O)N[C@@H](CO)C(=O)NCC(=O)N[C@@H](C)C(=O)N1CCC[C@H]1C(=O)N1CCC[C@H]1C(=O)N1CCC[C@H]1C(=O)N[C@@H](CO)C(=O)O)C(C)C)[C@@H](C)CC [AT667] (H-EGTFISDYSI[Aib][Nle]DKIK(C16 diacid)QQDFVEWLLAQKPSSGAPPPS-OH; N-terminus assumed) | 86% | – | – | – | –
B1 | – | – | 97% | 0.584 nM | 9.2
Glutaryl-GTFISDYSIA[Nle]DKIK(C16 diacid)QQDFVEWLLAQKPSSGAPPPS-OH [AT700] | – | – | 89% | 0.708 nM | 9.2
Glutaryl-GTFISDYSIA[Nle]DKIK([AEEA-AEEA-γGlu-C18 diacid])QQDFVEWLLAQKPSSGAPPPS-OH [AT702] | – | – | 85% | 3.55 nM | 8.5
